# Substrate: Nc1nc2c(ncn2[C@@H]2O[C@H](COP(=O)(O)OP(=O)(O)OP(=O)(O)O)[C@@H](O)[C@H]2O)c(=O)[nH]1
# Assay: Malachite green phosphate release, Michaelis-Menten fit
# Type: biochemical, Sulfolobus acidocaldarius
# Details: 65 °C, 0-500 µM GTP, 50 mM Tris pH 8.0, 150 mM NaCl, 10 mM MgCl2, 10 µM SaGPN
protein,measurement,value
"SaGPN (Sulfolobus acidocaldarius DSM 639) (protein, E. coli BL21(DE3) Rosetta; Y2-A240 built, 14 C-terminal residues disordered) MYFIFVLGTAGSGKTTLVKALQDYLLNNELDTAIINLDPAVEVLPYKPDIDAREYVDVYDVMNKYELGPNSSLVISVDLLLTKAKELKEDLNQLQANYVLVDTPGQIELFAYRDTGKILSSFISEGSKSVSVFLFDSYLSKDPKSFLSLFLLSSSIKFRIDMPQISVLSKVDLLSSSELERMRSWIEDGSIIDELGSIDEYSFELVKTIVENLESFPIPVSSTNFSGLDQLYAEVQKVLAGGEDFETEEPNPRL",Km,40.48 µM

# From article PMC10746158, “Archaeal GPN-loop GTPases involve a lock-switch-rock mechanism for GTP hydrolysis” (mBio, 2023)
